Biological target: the molecule itself
Assay: cross-linking; BS3 cross-linker added to 19.4 uM MARCH5 in 50 mM Hepes pH 7.7, 100 mM NaCl, 5% glycerol, 0.1 mM TCEP, 0.001% LMNG; without lipid (control) and with cardiolipin at 1:10 molar ratio of protein to lipid; samples at 0, 15, 30 and 60 min; SDS-PAGE

B1: MARCH5 (enzyme, human, UniProt Q9NX47 1-278, looked up)
chain: MPDQALQQMLDRSCWVCFATDEDDRTAEWVRPCRCRGSTKWVHQACLQRWVDEKQRGNSTARVACPQCNAEYLIVFPKLGPVVYVLDLADRLISKACPFAAAGIMVGSIYWTAVTYGAVTVMQVVGHKEGLDVMERADPLFLLIGLPTIPVMLILGKMIRWEDYVLRLWRKYSNKLQILNSIFPGIGCPVPRIPAEANPLADHVSATRILCGALVFPTIATIVGKLMFSSVNSNLQRTILGGIAFVAIKGAFKVYFKQQQYLRQAHRKILNYPEQEEA
notes: human MARCH5, cDNA codon-optimised for yeast (GenScript); Integral membrane protein, kept in the detergent LMNG; By the printed primers the TEV site is ENLYFQ/SQF, so ENLYFQ probably stays at the C-terminus after cleavage (surmised); also called M5; source: S. cerevisiae PAP1500, purified (DDM solubilisation, Ni resin with exchange to LMNG, TEV cleavage, reverse IMAC); not shown: yEGFP, …
  binding result: binds
